Data: article PMC3299805 (Immunity, 2012)
Like-named read-outs stand apart in the source and are kept apart here.

Experiments:
[1] = target: T1, JAK2 catalytic domain, JAK2JH1 (UniProt O60674 840-1128); assay: cell-based or functional assay
[2] = target: T1, JAK2 catalytic domain, JAK2JH1; assay: steady-state enzyme kinetics
[3] = target: T1, JAK2 catalytic domain, JAK2JH1; assay: steady-state enzyme kinetics; remark: listed apart in the source

T1 sequence (O60674 840-1128): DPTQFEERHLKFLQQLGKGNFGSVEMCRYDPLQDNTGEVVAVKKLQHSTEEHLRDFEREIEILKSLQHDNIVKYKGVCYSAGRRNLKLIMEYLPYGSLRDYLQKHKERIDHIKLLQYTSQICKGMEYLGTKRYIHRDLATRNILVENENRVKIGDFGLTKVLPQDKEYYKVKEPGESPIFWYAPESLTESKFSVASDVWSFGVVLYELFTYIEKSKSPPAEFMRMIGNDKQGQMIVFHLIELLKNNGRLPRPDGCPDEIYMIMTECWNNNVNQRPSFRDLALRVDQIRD

B1: SOCS3_(22–225)ΔPEST in complex with elongins B and C (complex)
chain 1: LKTFSSKSEYQLVVNAVRKLQESGFYWSAVTGGEANLLLSAEPAGTFLIRDSSDQRHFFTLSVKTQSGTKNLRIQCEGGSFSLQSDPRSTQPVPRFDCVLKLVHHYMGSGSGSGSAYYIYSGGEKIPLVLSRPLSSNVATLQHLCRKTVNGHLDSYEKVTQLPGPIREFLDQYDAPL
chain 2: MDVFLMIRRHKTTIFTDAKESSTVFELKRIVEGILKRPPDEQRLYKDDQLLDDGKTLGECGFTSQTARPQAPATVGLAFRADDTFEALCIEPFSSPPELPDVMKPQDSGSSANEQAVQ
chain 3: MYVKLISSDGHEFIVKREHALTSGTIKAMLSGPGQFAENETNEVNFREIPSHVLSKVCMYFTYKVRYTNSSTEIPEFPIAPEIALELLMAANFLDC
For B1, the “IC50 of inhibition of the kinase domain's activity (Figure 2A)” value [1] was 1500 nM, the Ki [2] was 1200 ± 300 nM and the Ki [3] was 1500 ± 700 nM.
